Data as given in patent US20220372154A1 (APEXIGEN, published 2022).
Changes are numbered by the printed parent chain.

T1: human TNFR2-His tagged protein (soluble) (human, UniProt P20333 23-257)
T1 construct: also called hTNFR2 (soluble); soluble TNFR2-His; not shown: His tag
T1 sequence (looked up): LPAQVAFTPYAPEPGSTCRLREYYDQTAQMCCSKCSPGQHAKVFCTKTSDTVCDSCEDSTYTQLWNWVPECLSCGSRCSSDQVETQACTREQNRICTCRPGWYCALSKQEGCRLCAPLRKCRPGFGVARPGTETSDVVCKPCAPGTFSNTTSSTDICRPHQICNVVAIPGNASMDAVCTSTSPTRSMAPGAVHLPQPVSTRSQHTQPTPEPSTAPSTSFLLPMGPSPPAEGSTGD

T2: cynomolgus TNFR2-His tagged protein (cynomolgus, UniProt A0A2K5VET2 132-366)
T2 construct: also called Cyno TNFR2; cynomolgus TNFR2 protein; not shown: His tag
T2 sequence: T1 sequence (looked up) with S16G, S36P, P117Q, N164H, E210A, S216G, M223V

T3: TNFR-Fc (UniProt P20333 23-257, limits assumed)
T3 construct: Printed only as TNFR-Fc; not shown: Fc part
T3 sequence (looked up): T1 sequence (looked up)

T4: human TNFR2 expressed on cells (human, UniProt P20333 23-461)
T4 construct: whole, on cells; also called hTNFR2 (cell); CHO-TNFR2
T4 sequence (looked up): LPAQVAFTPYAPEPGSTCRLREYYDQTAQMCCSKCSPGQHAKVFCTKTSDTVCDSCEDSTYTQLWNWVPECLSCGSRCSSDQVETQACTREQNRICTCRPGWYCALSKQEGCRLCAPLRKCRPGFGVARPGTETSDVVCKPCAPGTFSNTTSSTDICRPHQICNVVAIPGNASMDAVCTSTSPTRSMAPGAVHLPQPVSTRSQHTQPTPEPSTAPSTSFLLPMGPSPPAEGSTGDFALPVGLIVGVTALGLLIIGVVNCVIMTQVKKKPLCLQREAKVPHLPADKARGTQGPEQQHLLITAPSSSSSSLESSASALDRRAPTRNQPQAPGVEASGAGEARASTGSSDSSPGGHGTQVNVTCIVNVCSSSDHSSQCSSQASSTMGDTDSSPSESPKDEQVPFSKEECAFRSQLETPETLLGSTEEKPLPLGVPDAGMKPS

T5: soluble mouse TNFR2 (mouse, UniProt P25119 23-258, limits assumed)
T5 sequence (looked up): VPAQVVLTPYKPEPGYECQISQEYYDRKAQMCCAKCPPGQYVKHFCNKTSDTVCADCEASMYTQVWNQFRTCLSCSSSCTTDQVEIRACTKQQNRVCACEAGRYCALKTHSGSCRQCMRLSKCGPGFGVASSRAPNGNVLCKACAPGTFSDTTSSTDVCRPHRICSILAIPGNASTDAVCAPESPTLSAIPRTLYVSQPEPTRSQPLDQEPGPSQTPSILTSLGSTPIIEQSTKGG

B1: chimeric antibody clone 107 (rab600_23_107) (antibody, V domains shown)
VH: QSVEESGGRLVTPGTPLTLTCTVSGFSLSSNAISWVRQAPGKGLEWIGIINTYDNTAYATWAKGRFSISRTSTTVDLKITSPATKDTATYFCARDVHNNVVPYYFDMWGQGTLVTVSS
VL: AYDMTQTPATVEVAVGGTVTINCQASQSISNLLAWYQQKPGQRPKLLIYDTSDLASGVPSRFSGSGSGTEYTLTITGVECADAATYYCQQGYSSSNIDNVFGGGTEVVVK
B2: chimeric antibody clone 92 (rab600_25_92) (antibody, V domains shown)
VH: QSVEESGGRLVKPDETLTLICTVSGFSLSSHHMIWVRQAPGEGLEGIGIIDAGSGSTYYASWAKGRFTISRTSTTVDLKIASPTTEDTATYFCARGGLTESLGTYFDLWGPGTLVTVSS
VL: DIVMTQTPASVEAAVGGTVTIKCQASESIDSGLAWYQQKPGQRPKLLIYDSSTLASGVPSRFKGSGSGTDFTLTISDLECADAATYYCQSNYDTGSSVYDWGSFGGGTEVVVK
B3: chimeric antibody clone 127 (rab600_23_127) (antibody, V domains shown)
VH: QEQLEESGGDLVKPEGSLTLTCTASGFDFSVNAMCWVRQAPGKGPEWIAYISNADGSTHYASWVNGRFTISRSTSLNTVTLQMTRLTVSDTATYFCARAPYAGYTGYGYLNLWGPGTLVTVSS
VL: DVVMTQTPASVSGPVGGTVTIKCQASQNIDSDLAWYQQKPGQRPKLLIYDASKLASGVPSRFSGSGYGTEFTLTISGVQCEDAATYYCQYTYYINTYGGAFGGGTEVVVK
B4: chimeric antibody clone 4 (rab600_23_4) (antibody, V domains shown)
VH: QSVEESGGRLVTPGTPLTLTCTVSGIDLSSYTMGWVRQAPGKGLEYIGFISSSGHTYYANWAKGRFTISKTSSTTVDLKMTSLTTEDTATYFCARDGGYGGYDYTGIFNLWGQGTLVTVSS
VL: DIVMTQTASPVSAAVGGTVTIKCQATESISSWLAWYQQKPGQPPKLLIYGASTLESGVPSRFSGSGSGTEFTLTISGVQCDDAATYYCQQGYIYTNVDNTFGGGTEVVVK
B5: chimeric antibody clone 108 (taken as rab600_25_108) (antibody, V domains shown)
VH: QSVEESGGRLVTPGTPLTLTCKASGFSLSDYFMTWVRQAPGKGLEWIGIINTGGDSYYATWAKGRFTISKTSTTVDLKISSPTTEDTATYFCARDTGYGGYDYAGSFDPWGPGTLVTVSS
VL: AIKMTQTPASVSEPVGGTVTIKCQASENINSWLAWYQQKPGQPPKLLIYEASKLASGVPSRFKGSGSGTQFTLTISDLECADAATYYCQQGYIYIDVGNIFGGGTEVVVK
B6: chimeric antibody clone 57 (rab600_23_57) (antibody, V domains shown)
VH: QSVEESGGRLVTPGTPLTLTCTVSGFSLSSYAMGWVRQAPGKGLEWIGIIGSGGNTYYATWAKGRFTISRTSTTVDLRITSPTTEDTATYFCARDVGYGDYDALDLWGQGTLVTVSS
VL: DVVMTQTPSSVSEPVGGTVTIKCQASEEISSNLAWYQQKPGQPPKLLMYAASNLASGVSSRLKGSRSGTDYTLTISGVQCDDAATYFCQCTYIGSGYVVAFGGGTEVVVK
B7: chimeric antibody clone 42 (rab600_25_42) (antibody, V domains shown)
VH: QSLEESGGRLVTPGTPLTLTCTVSGIDLSTYAMIWVRQAPGKGLEYIGFIRPGGSAWYASWAKGRFTISKTSTTVDREITSPTTEDTATYFCATYDTYGYGDTRLWGPGTLVTVSS
VL: AYDMTQTPASVEVAVGGTVTIKCQASESIFSYLAWYQQKPGQRPKLLIYYASTLASGVPSRFKGSGSGTQFTLTISGVECADAATYYCQQGYDFSAVDNVFGGGTEVVVK
B8: chimeric antibody clone 102 (rab600_23_102) (antibody, V domains shown)
VH: QSVEESGGRLVTPGTPLTLTCTASGFSLSTYDMIWVRQAPGKGLEWIGYIWSDGITDYASWAKGRFTISKTSTTVDLKVTSPTTEDTATYFCARDVGYAGYGYYFDLWGQGTLVTVSS
VL: ALVMTQTPASVEVAVGGTVTIKCQASQSITNYLAWYRQKPGQPPKLLIYGASKLASGVPSRFSGSGSGTEYTLTISGVQCDDAATYYCQQGYTSSNVDNPFGGGTEVVVK
B9: chimeric antibody clone 11D7.1 (rab600_23_11D7.1) (antibody, V domains shown)
VH: QEQLEESGGGLVQPGGSLKLSCKASGFDFSRYYMSWVRQAPGKGLEWIGYIDPIFGNTYYASWVNGRFTISSHNAQNTLYLQLNNLTAADTATYFCARDGDAGYDGYGYGTDLWGPGTLVTVSS
VL: QVLTQTPSSVSEPVGGTVTINCQASENIYSGLAWYQQKPGQPPKLLIVSAFTLASGVPSRFKGSGTGTEFTLTISGVQCDDAATYYCQTYYYGSVTYFNAFGGGTEVVVK
notes: also called rab600_23_HD7.1
B10: humanized antibody clone 37 (taken as h600_25_37) (antibody, V domains shown)
VH: EVQLVESGGGLVQPGGSLRLSCAASGIDLSNYAMGWVRQAPGKGLEWVGSRRTDGITYYANWAEGRFTISRDNSKNTLYLQMNSLRAEDTAVYYCGRDVGGEGGWYFNLWGQGTLVTVSS
VL: DIQMTQSPSTLSASVGDRVTITCQASQSINIYLAWYQQKPGKAPKLLIYDASKLASGVPSRFSGSGSGTEFTLTISSLQPDDFATYYCQQGINNIGFGGGTKVEIK
B11: humanized antibody clone 25-10 (h600_24_10) (antibody, V domains shown)
VH: EVQLLESGGGLVQPGGSLRLSCAASGIDLSRYAMAWVRQAPGKGLEWVGYIDTGDSTYYATWAKGRFTISRDNSKNTLYLQMNSLRAEDTAVYYCTNVGVRMYLWGQGTLVTVSS
VL: DIQMTQSPSSLSASVGDRVTITCQASQSISSYLSWYQQKPGKAPKLLIYRASTLESGVPSRFSGSGSGTDFTLTISSLQPEDFATYYCQCGYYGGSYIGAFGGGTKVEIK
notes: its CDRs are those of rab600_25_10
B12: humanized antibody clone 25-103 (h600_24_103) (antibody, V domains shown)
VH: B11 VH with L5V, R31S, A35G, Y50F, D55G, T61N, T96A, V100A
VL: B11 VL with S31N, Y32L, S34A, G91S
notes: its CDRs are those of rab600_25_103

target: T1, human TNFR2-His tagged protein (soluble); test: ELISA on coated human TNFR2-His
Protocol: (§1) In FIGS. 3A-3B, human (3A) or cynomolgus (3B) TNFR2-His tagged protein was coated on 96-well ELISA plates at 1 μg/mL and incubated overnight at 4° C. Plates were washed and blocked using 1% BSA. Antibodies were added for 1 hour at room temperature (RT), washed, and detected using anti-Human HRP. Assay was developed using TMB substrate for 3-5 minutes. In FIG. 3C, FACS binding was performed on CHO cells that were engineered to express human TNFR2. Briefly, antibodies were incubated with 200,000 cells in MACS buffer for 1 hour followed by wash and detection using anti-human IgG BV421 for 20 minutes. Samples were analyzed using Cytoflex or MACSQuant flow cytometers. In FIG. 3D, ligand blocking ELISA was performed by coating plates with 1 ug/mL TNFR-Fc overnight at 4° C. Plates were washed, blocked and antibodies were incubated for 1 hr at RT. […] Assay was developed using TMB substrate for 5-7 minutes.

| Binder | EC50 |
| --- | --- |
| B1 | 0.325 nM |
| B2 | 0.131 nM |
| B3 | 0.313 nM |
| B4 | 0.094 nM |
| B5 | 0.256 nM |
| B6 | 0.067 nM |
| B7 | 0.242 nM |
| B8 | 0.207 nM |
| B9 | 0.14 nM |

target: T2, cynomolgus TNFR2-His tagged protein; test: ELISA, cynomolgus TNFR2

| Binder | EC50 |
| --- | --- |
| B10 | 0.056 nM |
| B11 | 0.113 nM |
| B12 | 0.107 nM |

target: T3, TNFR-Fc; test: TNF-α blocking ELISA on coated TNFR-Fc
Protocol: as §1

| Binder | IC50 |
| --- | --- |
| B1 | 2.22 nM |
| B2 | 3.06 nM |
| B3 | 6.62 nM |
| B4 | 2.74 nM |
| B5 | 4.55 nM |
| B6 | 0.741 nM |
| B7 | 11.2 nM |
| B8 | 100 nM |
| B9 | 6.09 nM |

target: T4, human TNFR2 expressed on cells; test: cell binding on TNFR2-overexpressing (OE) cells

| Binder | Kd |
| --- | --- |
| B11 | 1.05 nM |
| B12 | 0.468 nM |

target: T4, human TNFR2 expressed on cells; test: flow cytometry on CHO cells expressing human TNFR2
Protocol: as §1

| Binder | EC50 |
| --- | --- |
| B1 | 0.485 nM |
| B2 | 0.086 nM |
| B3 | 0.11 nM |
| B4 | 0.147 nM |
| B5 | 0.18 nM |
| B6 | 0.073 nM |
| B7 | 0.091 nM |
| B8 | 0.0901 nM |
| B9 | 0.17 nM |

target: T2, cynomolgus TNFR2-His tagged protein; test: ELISA on coated cynomolgus TNFR2-His
Protocol: as §1

| Binder | EC50 |
| --- | --- |
| B1 | 0.315 nM |
| B2 | 0.191 nM |
| B3 | 60 nM |
| B4 | 0.099 nM |
| B5 | 0.327 nM |
| B6 | 0.057 nM |
| B7 | 0.184 nM |
| B8 | 0.327 nM |
| B9 | 0.0396 nM |

target: T5, soluble mouse TNFR2; test: binding screen on soluble mouse TNFR2 (mouse cross-reactivity)

| Binder | binding result |
| --- | --- |
| B1 | no binding |
| B2 | no binding |
| B3 | no binding |
| B4 | no binding |
| B5 | no binding |
| B6 | no binding |
| B7 | no binding |
| B8 | no binding |
| B9 | no binding |

target: T4, human TNFR2 expressed on cells; test: flow cytometry, cell-expressed human TNFR2

| Binder | EC50 |
| --- | --- |
| B10 | 109 nM |
| B11 | 1.38 nM |
| B12 | 0.57 nM |

target: T1, human TNFR2-His tagged protein (soluble); test: ELISA, soluble human TNFR2

| Binder | EC50 |
| --- | --- |
| B10 | 0.072 nM |
| B11 | 0.053 nM |
| B12 | 0.097 nM |
